The data set is described as follows: self-splicing fitness, log relative to wild type (ln ratio); higher = more splicing; Tetrahymena group I intron in knt gene, E. coli kanamycin selection, DiMSum; sequences stand for … in CUCUCU…GGAGGGAAAAGUUAUCAGGCAUGCACCUGGUAGCUAGUCUUUAAACCAAUAGAUUGCAUCGGUUUAAAAGGCAAGACCGUCAAAUUGCGGGAAAGGGGUCAACAGCCGUUCAGUACCAAGUCUCAGGGGAAACUUUGAGAUGGCCUUGCAAAGGGUAUGGUAAUAAGCUGACGGACAUGGUCCUAACCACGCAGCCAAGUCCUAAGUCAACAGAUCUUCUGUUGAUAUGGAUGCAGUUCACAGACUAAAUGUCGGUCGGGGAAGAUGUAUUCUUCUCAUAAGAUAUAGUCGGACCUCUCCUUAAUGGGAGCUAGCGGAUGAAGUGAUGCAACACUGGAGCCGCUGGGAACUAAUUUGUAUGCGAAAGUAUAUUGAUUAGUUUUGGAGUACUCGUGGUCG
Summed up:
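Colonies from six replicate transformations of E. coli BL21(DE3) were pooled and amplicon-sequenced on an Illumina HiSeq 2500. The library placed an intron with all eight P1ex-region nucleotides randomised inside the knt kanamycin-resistance gene on pET-22b(+), and cells grew overnight at 37°C or 30°C on LB agar with or without 25 μg/mL kanamycin (plus 100 μg/mL carbenicillin, 50 μM IPTG, 0.2% rhamnose). Fitness is the DiMSum error-weighted combination of wild-type-normalised replicate fold changes, kanamycin versus none.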

± gives the uncertainty stated by the source.

Take GCACAGCAAUAUUACGAAUG: the “self-splicing fitness (ln)” value runs as follows: (30 °C) -1.89 ± 0.051; (37 °C) -1.09 ± 0.063. Turning to GCACAGCAAUAUUACGACAG, the “self-splicing fitness (ln)” value was -2.97 ± 0.25 (30 °C) and -1.8 ± 0.23 (37 °C). Consider GCACAGCAAUAUUACGACAU, for which the “self-splicing fitness (ln)” value (30 °C) was -0.894 ± 0.011 and the “self-splicing fitness (ln)” value (37 °C) was -0.217 ± 0.032. The corresponding values for GCACAGCAAUAUUACGACCC are 0.615 ± 0.18 and 0.472 ± 0.25. For the sequence GCACAGCAAUAUUACGAGCU, the “self-splicing fitness (ln)” value is -2.63 ± 0.11 (30 °C) and -1.07 ± 0.1 (37 °C).

In the case of GCACAGCAAUAUUACGAUAU, the “self-splicing fitness (ln)” value (30 °C) was -0.993 ± 0.056 and the “self-splicing fitness (ln)” value (37 °C) is -0.54 ± 0.071.

On to GCACAGCAAUAUUACGCAAC, for which the “self-splicing fitness (ln)” value is, setting by setting: (30 °C) -2.31 ± 0.17; (37 °C) -1.03 ± 0.19. The corresponding values for GCACAGCAAUAUUACGCAAU are -1.14 ± 0.1 and -0.864 ± 0.087. As for GCACAGCAAUAUUACGCCCA, the “self-splicing fitness (ln)” value by setting is: (30 °C) -1.72 ± 0.27; (37 °C) -0.754 ± 0.24. In the case of GCACAGCAAUAUUACGCCGU, the “self-splicing fitness (ln)” value reads like this: (30 °C) -1.51 ± 0.1; (37 °C) 0.145 ± 0.14. The corresponding values for GCACAGCAAUAUUACGCCUC are -0.836 ± 0.065 and -0.337 ± 0.074. As for GCACAGCAAUAUUACGCGAG, the “self-splicing fitness (ln)” value by setting is: (30 °C) -2.41 ± 0.092; (37 °C) -0.669 ± 0.084. As to GCACAGCAAUAUUACGCUUA, the “self-splicing fitness (ln)” value runs as follows: (30 °C) -0.908 ± 0.065; (37 °C) -0.871 ± 0.062. The corresponding values for GCACAGCAAUAUUACGGAUC are -0.505 ± 0.053 and -0.336 ± 0.061.

Consider GCACAGCAAUAUUACGGCAU, for which the “self-splicing fitness (ln)” value (30 °C) was -1.59 ± 0.095 and the “self-splicing fitness (ln)” value (37 °C) is -0.16 ± 0.091. The corresponding values for GCACAGCAAUAUUACGGCGA are -1.16 ± 0.083 and -0.758 ± 0.095. The corresponding values for GCACAGCAAUAUUACGGCGG are -3.29 ± 0.19 and -2.78 ± 0.25. With GCACAGCAAUAUUACGGGAU, the “self-splicing fitness (ln)” value by setting is: (30 °C) -1.01 ± 0.073; (37 °C) -1.02 ± 0.087. The corresponding values for GCACAGCAAUAUUACGGGGG are -1.97 ± 0.088 and -0.472 ± 0.08.

As for GCACAGCAAUAUUACGUAAU, the “self-splicing fitness (ln)” value is, setting by setting: (30 °C) 0.164 ± 0.059; (37 °C) -0.0143 ± 0.064. The corresponding values for GCACAGCAAUAUUACGUAGA are -0.215 ± 0.049 and 0.62 ± 0.066.

As to GCACAGCAAUAUUACGUCGC, the “self-splicing fitness (ln)” value is, setting by setting: (30 °C) -3.17 ± 0.13; (37 °C) -1.67 ± 0.12.

Regarding GCACAGCAAUAUUACGUUAG, the “self-splicing fitness (ln)” value is, setting by setting: (30 °C) -2.6 ± 0.091; (37 °C) -1.85 ± 0.11. As to GCAGAGCAAUAUUACGAACC, the “self-splicing fitness (ln)” value by setting is: (30 °C) -1.87 ± 0.32; (37 °C) -1.24 ± 0.33. With GCAGAGCAAUAUUACGAAGA, the “self-splicing fitness (ln)” value (30 °C) is -1.88 ± 0.36.

Regarding GCAGAGCAAUAUUACGACGC, the “self-splicing fitness (ln)” value was -3.56 ± 0.3 (30 °C) and -1.69 ± 0.18 (37 °C). The corresponding values for GCAGAGCAAUAUUACGAGAC are -3.42 ± 0.21 and -2.03 ± 0.12.

For GCAGAGCAAUAUUACGAGGG, the “self-splicing fitness (ln)” value runs as follows: (30 °C) -3.47 ± 0.22; (37 °C) -2.2 ± 0.24. Take GCAGAGCAAUAUUACGAUAA: the “self-splicing fitness (ln)” value (30 °C) is -3.38 ± 0.41 and the “self-splicing fitness (ln)” value (37 °C) was -2.72 ± 0.44. On to GCAGAGCAAUAUUACGCACC, for which the “self-splicing fitness (ln)” value was -2.11 ± 0.45 (30 °C) and -1.17 ± 0.48 (37 °C).

Regarding GCAGAGCAAUAUUACGCAUG, the “self-splicing fitness (ln)” value (37 °C) was -2.3 ± 0.39. On to GCAGAGCAAUAUUACGCCGC, for which the “self-splicing fitness (ln)” value (30 °C) was -2.91 ± 0.38. For the sequence GCAGAGCAAUAUUACGCUGA, the “self-splicing fitness (ln)” value runs as follows: (30 °C) -2.11 ± 0.29; (37 °C) -0.433 ± 0.19. The corresponding values for GCAGAGCAAUAUUACGGAUA are -1.48 ± 0.32 and -2.92 ± 0.4. Consider GCAGAGCAAUAUUACGGCCA, for which the “self-splicing fitness (ln)” value (37 °C) is -2.11 ± 0.29.

On to GCAGAGCAAUAUUACGGCCU, for which, for the setting “37 °C”, the “self-splicing fitness (ln)” value is -1.69 ± 0.28. Turning to GCAGAGCAAUAUUACGGCGU, the “self-splicing fitness (ln)” value runs as follows: (30 °C) -0.715 ± 0.099; (37 °C) -0.614 ± 0.11. On to GCAGAGCAAUAUUACGGGAU, for which the “self-splicing fitness (ln)” value reads like this: (30 °C) -3.53 ± 0.2; (37 °C) -2.21 ± 0.19. For GCAGAGCAAUAUUACGGGCG, the “self-splicing fitness (ln)” value was -3.2 ± 0.17 (30 °C) and -0.961 ± 0.14 (37 °C). Regarding GCAGAGCAAUAUUACGGGGC, under “30 °C”, the “self-splicing fitness (ln)” value was -3.05 ± 0.36. The same measure, in the same setting: as for GCAGAGCAAUAUUACGGUAU, the figure is -3.23 ± 0.15. Regarding GCAGAGCAAUAUUACGUAAC, the “self-splicing fitness (ln)” value is -2.84 ± 0.29 (30 °C) and 0.113 ± 0.22 (37 °C). The corresponding values for GCAGAGCAAUAUUACGUAGC are -3.31 ± 0.25 and -2.77 ± 0.22. Consider GCAGAGCAAUAUUACGUCAU, for which, under “37 °C”, the “self-splicing fitness (ln)” value is -1.4 ± 0.42.

On to GCAGAGCAAUAUUACGUGCA, for which the “self-splicing fitness (ln)” value (30 °C) was -3.08 ± 0.29 and the “self-splicing fitness (ln)” value (37 °C) is -2.21 ± 0.23.

GCAGAGCAAUAUUACGUUUA: the “self-splicing fitness (ln)” value (30 °C) was -2.56 ± 0.3. Regarding GCAUAGCAAUAUUACGAAUA, the “self-splicing fitness (ln)” value was -2.07 ± 0.17 (30 °C) and -1.38 ± 0.19 (37 °C). Turning to GCAUAGCAAUAUUACGACGC, the “self-splicing fitness (ln)” value (30 °C) is -0.867 ± 0.13 and the “self-splicing fitness (ln)” value (37 °C) is -0.196 ± 0.13. The corresponding values for GCAUAGCAAUAUUACGACUG are -1.68 ± 0.12 and -0.65 ± 0.16. For the sequence GCAUAGCAAUAUUACGAGAA, the “self-splicing fitness (ln)” value is -2.57 ± 0.46 (30 °C) and -2.67 ± 0.41 (37 °C). The corresponding values for GCAUAGCAAUAUUACGAGCG are -1.3 ± 0.077 and -1.05 ± 0.085. On to GCAUAGCAAUAUUACGAGGA, for which the “self-splicing fitness (ln)” value by setting is: (30 °C) -2.47 ± 0.32; (37 °C) -2.21 ± 0.22.

For GCAUAGCAAUAUUACGAUAU, the “self-splicing fitness (ln)” value was -1.9 ± 0.084 (30 °C) and 0.148 ± 0.09 (37 °C).

In the case of GCAUAGCAAUAUUACGAUUG, the “self-splicing fitness (ln)” value (30 °C) was -2.38 ± 0.14 and the “self-splicing fitness (ln)” value (37 °C) is -1.67 ± 0.15. Take GCAUAGCAAUAUUACGCAGA: the “self-splicing fitness (ln)” value is -2.62 ± 0.31 (30 °C) and -2.06 ± 0.17 (37 °C). On to GCAUAGCAAUAUUACGCCUU, for which, under “37 °C”, the “self-splicing fitness (ln)” value was -1.42 ± 0.21.

As for GCAUAGCAAUAUUACGCGAA, the “self-splicing fitness (ln)” value by setting is: (30 °C) -2.13 ± 0.1; (37 °C) -1.62 ± 0.12. Consider GCAUAGCAAUAUUACGCGAU, for which the “self-splicing fitness (ln)” value is -3.36 ± 0.16 (30 °C) and -1.93 ± 0.14 (37 °C).

Take GCAUAGCAAUAUUACGGCCG: the “self-splicing fitness (ln)” value runs as follows: (30 °C) -2.37 ± 0.36; (37 °C) -0.909 ± 0.39. The corresponding values for GCAUAGCAAUAUUACGGGAC are -2.49 ± 0.17 and -0.217 ± 0.14. The corresponding values for GCAUAGCAAUAUUACGGGCG are -1.84 ± 0.12 and -1.09 ± 0.11. The corresponding values for GCAUAGCAAUAUUACGGUGG are -2.55 ± 0.15 and -1.31 ± 0.13.

As for GCAUAGCAAUAUUACGUAUA, the “self-splicing fitness (ln)” value reads like this: (30 °C) -3.23 ± 0.29; (37 °C) -1.52 ± 0.24.

For GCAUAGCAAUAUUACGUAUC, the “self-splicing fitness (ln)” value (30 °C) was -3.24 ± 0.21 and the “self-splicing fitness (ln)” value (37 °C) is -2.49 ± 0.22.

Regarding GCAUAGCAAUAUUACGUGAC, the “self-splicing fitness (ln)” value (30 °C) was -2.49 ± 0.2 and the “self-splicing fitness (ln)” value (37 °C) was -0.677 ± 0.14.

Consider GCAUAGCAAUAUUACGUGUC, for which the “self-splicing fitness (ln)” value was -3.89 ± 0.2 (30 °C) and -1.96 ± 0.2 (37 °C). With GCAUAGCAAUAUUACGUUCU, the “self-splicing fitness (ln)” value was -2 ± 0.096 (30 °C) and -0.899 ± 0.1 (37 °C). The corresponding values for GCAUAGCAAUAUUACGUUUA are -2.47 ± 0.16 and -1.61 ± 0.12.

For GCAUAGCAAUAUUACGUUUU, the “self-splicing fitness (ln)” value runs as follows: (30 °C) -3.61 ± 0.19; (37 °C) -1.82 ± 0.19. Turning to GCCAAGCAAUAUUACGAGCA, the “self-splicing fitness (ln)” value (30 °C) is -1.82 ± 0.14 and the “self-splicing fitness (ln)” value (37 °C) is -1.11 ± 0.15. The corresponding values for GCCAAGCAAUAUUACGCAAG are -2.89 ± 0.17 and -1.7 ± 0.2. The corresponding values for GCCAAGCAAUAUUACGCACG are -2.84 ± 0.23 and -1.08 ± 0.16.

On to GCCAAGCAAUAUUACGCAUA, for which the “self-splicing fitness (ln)” value by setting is: (30 °C) -1.3 ± 0.09; (37 °C) -0.709 ± 0.085.

Take GCCAAGCAAUAUUACGCCAG: the “self-splicing fitness (ln)” value (30 °C) is -3.37 ± 0.21 and the “self-splicing fitness (ln)” value (37 °C) is -2.88 ± 0.24. The corresponding values for GCCAAGCAAUAUUACGCCCU are -1.4 ± 0.13 and -0.504 ± 0.16. Consider GCCAAGCAAUAUUACGCCUC, for which the “self-splicing fitness (ln)” value is, setting by setting: (30 °C) -1.32 ± 0.1; (37 °C) -0.316 ± 0.1. The corresponding values for GCCAAGCAAUAUUACGCGAU are -3.73 ± 0.14 and -2.64 ± 0.18. In the case of GCCAAGCAAUAUUACGCGCA, the “self-splicing fitness (ln)” value (30 °C) is -0.985 ± 0.12 and the “self-splicing fitness (ln)” value (37 °C) is 0.097 ± 0.11.
